Reference: paper PMC6122969

Molecular target: HLA-A*02:01 on T2 cells (human (endogenous in T2))
Assay: flow cytometry on cells

Time for which complexes with HLA-A*02:01 lasted, > 4 h:
LTLLGTLWGA [p34 peptide … from PCDHGA6]
VIIKPLVWV [p55 peptide … from APCS]
FLGPWPAAS [p14 peptide … from the LRPAP1 signal peptide]
SVLWLGALGL [p35 peptide … from C20orf141]
